We go through 1 substance from article PMC7846742.

For the assay, the target named is His6-OAZ-GSY-SPM-Ctag (human | Neisseria meningitidis serogroup B (strain MC58)) (UniProt Q9JYV5). Kind of assay: cross-linking; NeissLock: Ca2+-induced aspartic anhydride on OAZ reacts with the docked partner; purified proteins mixed at 10 µM each or as indicated (AZI 2.5 µM each; Fig. 4b 0.5 µM each; 30 µM ODC with 10 µM OAZ-Y-SPM), 37 °C, HBS pH 7.4 with 2 mM TCEP, 10 mM CaCl2 unless varied (pH 6.5-8.5, 0.5-10 mM Ca2+, TBS, lyophilised probe); SDS-PAGE with Coomassie, intact ESI-MS, tryptic LC-MS/MS.

Sequence of His6-AZI-Ctag (human Antizyme Inhibitor) (O14977 whole entry): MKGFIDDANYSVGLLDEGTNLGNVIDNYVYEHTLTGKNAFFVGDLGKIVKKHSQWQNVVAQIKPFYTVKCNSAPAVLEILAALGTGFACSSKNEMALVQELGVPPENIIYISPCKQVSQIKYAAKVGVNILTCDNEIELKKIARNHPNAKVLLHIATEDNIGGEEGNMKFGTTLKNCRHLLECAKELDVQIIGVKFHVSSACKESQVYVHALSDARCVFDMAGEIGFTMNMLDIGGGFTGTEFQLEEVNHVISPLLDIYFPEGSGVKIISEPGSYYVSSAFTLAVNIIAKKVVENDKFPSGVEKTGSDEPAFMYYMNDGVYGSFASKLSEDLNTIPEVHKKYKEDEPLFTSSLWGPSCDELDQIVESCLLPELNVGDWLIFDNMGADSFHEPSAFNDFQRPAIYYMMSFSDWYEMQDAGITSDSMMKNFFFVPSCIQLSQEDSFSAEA

“His6-AZI-Ctag (human Antizyme Inhibitor) (from UniProt O14977 1-448) (natural protein)” had a coupling yield of 80% and a percent of AZI conjugated within 10 min of over 50%.
